Reference: US20210069342A1 (LEGOCHEM BIOSCIENCES, published 2021)

Columns and labels:
[1] = target: T1, human ROR1 expressed on the cell surface (human, UniProt Q01973 30-937); assay: flow cytometry on BT474 cells (breast cancer), C2E3 IgG, FITC anti-human Fc detection
T1 construct: whole, on cells; also called cell surface-expressed ROR1 antigen; ROR1 on JeKo-1, Mino, CHO-human ROR1, MC38-human ROR1 and other cancer cell lines
Experimental: (§1) FACS analysis (FACSCalibur, BD Biosciences) was used to analyze the binding of the anti-ROR1 antibody of the present invention to ROR1 in the above cell lines.
(§2) Specifically, the respective cell lines were dissociated and washed in PBS, then the numbers of cells were counted and adjusted to 2×10⁵ cells/200 PBS. Then, they were treated with 10 /mL of the antibody of clone name C2E3 of the ROR1 monoclonal antibodies prepared in Embodiment 3, and reacted for 1 hour at 4° C. After the reaction, the cells were washed in PBS, then FITC-marked constant region (Fc) specific antibody (Goat anti-human IgG FITC conjugate, Fc specific, Sigma, F9512, concentration 20 mg/ml) was suspended in 2 /1×10⁵ cells/200 PBS and reacted for 1 hour at 4° C. After reacting, the cells were washed with PBS and analyzed with the FACSCalibur equipment. The negative control was only treated with FITC-marked constant region (Fc) specific antibody. To compare the degree of ROR1 expression among the respective cancer cell lines, the quotient of dividing the shifted readings for the experimental group treated with the ROR1 monoclonal antibody (C2E3) of the present invention by the shifted readings for the control group (MFI Ratio: MFI of anti-ROR1/MFI or 2nd Ab) is indicated.

[2] = target: T1, human ROR1 expressed on the cell surface; assay: flow cytometry on MDA-MB-468 cells (breast cancer), C2E3 IgG, FITC anti-human Fc detection
Experimental: as §1, §2

[3] = target: T1, human ROR1 expressed on the cell surface; assay: flow cytometry on SNU-16 cells (gastric cancer), C2E3 IgG, FITC anti-human Fc detection
Experimental: as §1, §2

[4] = target: T2, recombinant human ROR1-His (Sino Biological, 13968-H08H) (human, UniProt Q01973 30-406); assay: BLI (Octet), ROR1-His on Anti-Penta-His or AR2G biosensor, IgG 30 to 0.021 nM, 1:1 fit
T2 construct: extracellular domain; Bought protein; also called ROR1-HIS protein; not shown: His tag
Experimental: A 96-well black microplate (greiner bio one) was mounted on a biosensor tray case, and 200 10×KB or DW was added to each of 8 wells. Then Anti Penta His biosensors or 8 AR2G biosensors (ForteBio, USA) were inserted to hydrate for 10 minutes. 600 of the assay samples were diluted 2-fold or 3-fold to the appropriate assay concentrations, using 1×KB or 10×KB to 30 to 0.021 nM. To immobilize the antigen, recombinant human ROR1-His (Sino Biological, 13968-H08H) was diluted to 1 /ML with 10×KB or Sodium Acetate pH5 buffer. Immobilization was fixed at a threshold of 0.3 nm in the loading step. The association assay was carried out for 3 to 10 minutes, and the dissociation assay was carried out for 20 minutes. According to the Octet program template, the buffer was placed in a new 96-well black microplate according to order. As Baseline1, 200 10×KB or DW was placed. Then 200 each of 1 /mL of the antigen to be loaded, the ROR1-HIS protein, was added. As Baseline2, 200 10×KB or 1×KB was placed. Then to each well 30 to 0.021 nM of the diluted antibody and 200 each of 10×KB buffer or 1×KB corresponding to a reference blank was added. The temperature of the test plate was fixed at 30° C. After all of the samples were introduced, the equipment was started, and after the assay was completed, results were uploaded to the Octet Analysis 90 software, with KD values analyzed through 1:1 fitting. By obtaining KD values through the Octet assay method, it was confirmed that the anti-ROR1 antibody had strong binding potential to ROR1 antigen.

[5] = target: T1, human ROR1 expressed on the cell surface; assay: flow cytometry on HCC1806 cells (breast cancer), C2E3 IgG, FITC anti-human Fc detection
Experimental: as §1, §2

[6] = target: T1, human ROR1 expressed on the cell surface; assay: flow cytometry on Calu-6 cells (lung cancer), C2E3 IgG, FITC anti-human Fc detection
Experimental: as §1, §2

[7] = target: T1, human ROR1 expressed on the cell surface; assay: flow cytometry on HT29 cells (colon cancer), C2E3 IgG, FITC anti-human Fc detection
Experimental: as §1, §2

[8] = target: T1, human ROR1 expressed on the cell surface; assay: flow cytometry on JeKo-1 cells (MCL), C2E3 IgG, FITC anti-human Fc detection
Experimental: as §1, §2

[9] = target: T1, human ROR1 expressed on the cell surface; assay: flow cytometry on Kasumi-2 cells (ALL), C2E3 IgG, FITC anti-human Fc detection
Experimental: as §1, §2

[10] = target: T1, human ROR1 expressed on the cell surface; assay: flow cytometry on HCC1143 cells (breast cancer), C2E3 IgG, FITC anti-human Fc detection
Experimental: as §1, §2

T1 sequence (Q01973 30-937): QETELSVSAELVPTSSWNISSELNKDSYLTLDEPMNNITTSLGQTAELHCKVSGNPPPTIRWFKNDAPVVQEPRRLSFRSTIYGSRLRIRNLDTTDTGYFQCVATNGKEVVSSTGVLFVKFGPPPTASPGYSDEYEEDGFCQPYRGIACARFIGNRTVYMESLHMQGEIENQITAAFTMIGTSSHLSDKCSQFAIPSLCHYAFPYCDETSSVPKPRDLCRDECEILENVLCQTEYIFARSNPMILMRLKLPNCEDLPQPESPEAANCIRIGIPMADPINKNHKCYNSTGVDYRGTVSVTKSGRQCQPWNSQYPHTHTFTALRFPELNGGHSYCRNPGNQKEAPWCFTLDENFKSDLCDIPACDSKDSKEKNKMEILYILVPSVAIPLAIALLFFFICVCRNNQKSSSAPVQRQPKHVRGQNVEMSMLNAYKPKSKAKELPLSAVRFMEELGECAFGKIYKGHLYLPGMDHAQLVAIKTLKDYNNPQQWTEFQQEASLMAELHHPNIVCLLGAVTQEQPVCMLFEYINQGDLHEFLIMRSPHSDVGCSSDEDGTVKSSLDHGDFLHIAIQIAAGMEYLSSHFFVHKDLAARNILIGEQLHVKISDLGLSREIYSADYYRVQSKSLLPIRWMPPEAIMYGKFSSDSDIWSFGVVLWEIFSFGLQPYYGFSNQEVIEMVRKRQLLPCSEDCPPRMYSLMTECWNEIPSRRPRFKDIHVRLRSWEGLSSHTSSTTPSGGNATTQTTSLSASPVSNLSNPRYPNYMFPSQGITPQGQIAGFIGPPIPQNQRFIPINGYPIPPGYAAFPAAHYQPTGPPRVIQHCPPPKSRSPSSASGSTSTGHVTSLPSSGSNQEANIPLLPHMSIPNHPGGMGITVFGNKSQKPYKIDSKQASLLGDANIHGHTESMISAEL
T2 sequence (Q01973 30-406): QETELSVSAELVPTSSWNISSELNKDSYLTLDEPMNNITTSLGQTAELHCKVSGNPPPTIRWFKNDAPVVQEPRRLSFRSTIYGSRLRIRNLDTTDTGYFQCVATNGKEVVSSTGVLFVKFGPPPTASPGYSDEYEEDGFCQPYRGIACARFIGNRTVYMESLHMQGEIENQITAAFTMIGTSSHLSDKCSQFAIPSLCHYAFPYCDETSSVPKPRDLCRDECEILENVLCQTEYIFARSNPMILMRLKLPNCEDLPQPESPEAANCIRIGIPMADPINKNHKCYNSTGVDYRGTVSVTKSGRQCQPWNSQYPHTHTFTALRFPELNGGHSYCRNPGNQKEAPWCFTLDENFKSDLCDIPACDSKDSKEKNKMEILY

B1: anti-ROR1 IgG antibody C2E3 (antibody, V domains shown)
VH: EVQLLESGGGLVQPGGSLRLSCAASGFTFSNYAMSWVRQAPGKGLEWVSSISHNSGSTYYADSVKGRFTISRDNSKNTLYLQMNSLRAEDTAVYYCAKFISARKSLGRSYSNGMDVWGQGTLVTVSS
VL: QSVLTQPPSASGTPGQRVTISCTGSSSNIGSNDVTWYQQLPGTAPKLLIYADSKRPSGVPDRFSGSKSGTSASLAISGLRSEDEADYYCGTWDYSLSGYVFGGGTKLTVLG
notes: Full IgG form (human IgG1 constant region, lambda light chain), expressed in CHO-S cells
How did the “Mean Fold Ratio (MFI of anti-ROR1 / MFI of 2nd Ab)” value [1] turn out when B1 was run?
Its value is 1.7.

And the “Mean Fold Ratio (MFI of anti-ROR1 / MFI of 2nd Ab)” value [2]?
The value was 6.4.

What about the “Mean Fold Ratio (MFI of anti-ROR1 / MFI of 2nd Ab)” value [3] of the same binder?
The value was 2.4.

What about the kon [4] of the same binder?
Its kon is 5.46e+06 M⁻¹ s⁻¹.

And the “Mean Fold Ratio (MFI of anti-ROR1 / MFI of 2nd Ab)” value [5]?
Its value is 2.3.

And the “Mean Fold Ratio (MFI of anti-ROR1 / MFI of 2nd Ab)” value [6]?
The value was 3.3.

And the “Mean Fold Ratio (MFI of anti-ROR1 / MFI of 2nd Ab)” value [7]?
Its value is 3.9.

What about the “Mean Fold Ratio (MFI of anti-ROR1 / MFI of 2nd Ab)” value [8] of the same binder?
Its value is 4.

What about the “Mean Fold Ratio (MFI of anti-ROR1 / MFI of 2nd Ab)” value [9] of the same binder?
The value was 11.5.

What about the “Mean Fold Ratio (MFI of anti-ROR1 / MFI of 2nd Ab)” value [10] of the same binder?
Its value is 3.2.
